Biological target: AF-tubulin (porcine) (UniProt P02550)
UniProt P02550, sequence (P02550 whole entry, chain 1 of 2): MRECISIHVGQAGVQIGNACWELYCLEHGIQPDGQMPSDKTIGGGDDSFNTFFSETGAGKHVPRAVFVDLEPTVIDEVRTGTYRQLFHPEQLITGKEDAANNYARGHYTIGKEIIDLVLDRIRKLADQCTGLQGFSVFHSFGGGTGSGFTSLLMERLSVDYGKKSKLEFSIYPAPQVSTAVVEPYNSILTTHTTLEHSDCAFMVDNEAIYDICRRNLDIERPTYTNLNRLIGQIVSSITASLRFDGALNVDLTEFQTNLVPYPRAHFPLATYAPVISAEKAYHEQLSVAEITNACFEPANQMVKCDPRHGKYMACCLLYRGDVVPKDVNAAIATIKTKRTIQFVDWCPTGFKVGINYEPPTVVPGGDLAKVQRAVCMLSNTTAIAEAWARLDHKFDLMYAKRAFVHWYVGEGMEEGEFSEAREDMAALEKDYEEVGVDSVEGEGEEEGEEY
UniProt P02550, sequence (Q767L7 whole entry, chain 2 of 2, further chain): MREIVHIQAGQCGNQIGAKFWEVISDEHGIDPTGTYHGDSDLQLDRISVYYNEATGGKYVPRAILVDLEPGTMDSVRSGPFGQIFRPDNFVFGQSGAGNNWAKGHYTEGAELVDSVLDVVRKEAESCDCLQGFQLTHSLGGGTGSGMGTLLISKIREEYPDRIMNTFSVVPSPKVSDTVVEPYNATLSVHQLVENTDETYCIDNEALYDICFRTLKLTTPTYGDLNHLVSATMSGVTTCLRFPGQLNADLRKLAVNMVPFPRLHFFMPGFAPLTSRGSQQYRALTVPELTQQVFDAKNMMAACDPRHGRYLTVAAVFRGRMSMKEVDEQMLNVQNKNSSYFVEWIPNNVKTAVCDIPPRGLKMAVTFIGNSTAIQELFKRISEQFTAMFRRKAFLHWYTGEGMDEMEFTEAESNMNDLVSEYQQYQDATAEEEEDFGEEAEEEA

Pearson's correlation coefficient (PCC) of co-localisation of TMR-microtubule and AF-tubulin fluorescence in CLSM images, 100 uM peptide, doublet method (no peptide: 0.07) | Binder
0.61 | KAKAKAKAKAKAKAGGGSGGGKKHVPGGGSVQIVYKPVDL [KA7–GGGS–TP]
0.7 | KAKAKAKAKAKAKAGGGSGGGSGGGSGGGKKHVPGGGSVQIVYKPVDL [KA7–(GGGS)3–TP]
0.72 | KAKAKAKAKAKAKAEAAAKEAAAKGGGKKHVPGGGSVQIVYKPVDL [KA7–(EAAAK)2–TP]

Reference: paper PMC11951922
